*1 amine or outer side, *2 acyl side, *3 side chain or, on linkers, in order; H or OH if unused. Bridges are numbered along the chain shown (N, C = ends). Primed or numbered codes have the meaning given here. [ ]: non-standard residue; d: D form. The star is where a group is joined. DOTA = O=C(O)CN1CCN(CC(=O)O)CCN(CC(=O)*)CCN(CC(=O)O)CC1; TATA = O=C(CC[*:1])N1CN(C(=O)CC[*:2])CN(C(=O)CC[*:3])C1; NOTA = O=C(O)CN1CCN(CC(=O)O)CCN(CC(=O)*)CC1; Hyp = O=C(O)[C@@H]1C[C@@H](O)CN1; hArg = N=C(N)NCCCC[C@H](N)C(=O)O; PEG2′ = not defined here; Sar = CNCC(=O)O

What all share (settings): both partners purified
The target in test [1] is T1, His-tagged human EphA2 (human, UniProt P29317 24-537).
T1 construct: human EphA2 (Ephrin receptor A2), recombinant, 56.9 kDa; also called recombinant human EphA2 protein; hEphA2; source: bought: R&D systems, catalog # 3035-A2
The experiment in a line: SPR; Biacore T200, CM5 chip, 25 °C; His-tagged human EphA2 captured on immobilised anti-His antibody (FC2); AJ210 as analyte, 0.625-80 nM, in HBS-P + 0.1% DMSO, 50 μL/min, contact 120 s, dissociation 600 s; 1:1 kinetics model. A general note: In SPR one partner is held on a chip, and binding of the other changes the refractive index at the surface.
T1 sequence (P29317 24-537): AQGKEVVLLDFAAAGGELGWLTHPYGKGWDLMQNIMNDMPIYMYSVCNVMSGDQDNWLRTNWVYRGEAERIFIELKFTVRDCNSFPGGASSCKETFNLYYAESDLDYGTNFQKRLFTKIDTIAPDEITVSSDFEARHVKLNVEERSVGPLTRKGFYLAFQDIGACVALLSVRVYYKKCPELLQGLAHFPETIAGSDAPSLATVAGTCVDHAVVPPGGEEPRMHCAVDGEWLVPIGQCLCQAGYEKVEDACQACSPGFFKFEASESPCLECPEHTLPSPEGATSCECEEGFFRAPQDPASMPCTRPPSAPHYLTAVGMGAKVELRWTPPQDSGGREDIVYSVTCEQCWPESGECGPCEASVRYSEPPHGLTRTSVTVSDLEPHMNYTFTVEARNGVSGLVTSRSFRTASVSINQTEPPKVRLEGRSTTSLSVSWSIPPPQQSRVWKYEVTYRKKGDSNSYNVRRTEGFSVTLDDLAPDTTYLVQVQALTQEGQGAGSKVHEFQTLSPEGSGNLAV

In test [2] the target is T2, His-tagged human EphA2 (human, UniProt P29317 24-537).
T2 construct: Human EphA2 (Ephrin receptor A2), recombinant, His-tagged, printed as 56.9 kDa; also called hEphA2; recombinant human EphA2; source: bought: R&D systems, catalog # 3035-A2
Kind of test: SPR; Biacore T200, CM5 chip, 25 °C; His-tagged EphA2 captured (~750 RU) on amine-coupled anti-His antibody; peptide as analyte in HBS-P (10 mM HEPES pH 7.4, 150 mM NaCl, 0.05% P20) + 0.1% DMSO, 50 μL/min, contact 120 s, dissociation 600 s; 1:1 kinetics model.
T2 sequence (P29317 24-537): as above

Test [3] deals with T3, His-tagged mouse EphA2 (mouse, UniProt Q03145 26-538).
T3 construct: Mouse EphA2, recombinant, His-tagged, printed as 58 kDa; also called mEphA2; recombinant mouse EphA2; source: bought: SinoBiological, cat.# 50586-M08H
The description is as above.

T3 sequence (Q03145 26-538): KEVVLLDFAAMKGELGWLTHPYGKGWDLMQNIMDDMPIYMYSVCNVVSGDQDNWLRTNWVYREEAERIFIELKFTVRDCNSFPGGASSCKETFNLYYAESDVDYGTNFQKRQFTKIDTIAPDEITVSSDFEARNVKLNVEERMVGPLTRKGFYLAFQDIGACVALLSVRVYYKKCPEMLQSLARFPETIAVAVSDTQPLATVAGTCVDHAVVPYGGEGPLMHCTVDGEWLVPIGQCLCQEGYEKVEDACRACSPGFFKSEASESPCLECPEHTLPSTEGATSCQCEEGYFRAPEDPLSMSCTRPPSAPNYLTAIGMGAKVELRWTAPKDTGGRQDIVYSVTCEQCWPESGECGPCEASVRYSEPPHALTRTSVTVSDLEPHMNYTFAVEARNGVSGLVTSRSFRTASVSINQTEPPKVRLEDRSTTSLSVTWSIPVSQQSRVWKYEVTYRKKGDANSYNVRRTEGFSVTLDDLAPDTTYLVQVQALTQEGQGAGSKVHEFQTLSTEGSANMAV

B1: AJ210 (peptide)
chain: {DOTA}-A[hArg]DC[Hyp]LVNPLCLHP[dD]W[hArg]C-NH2
modifications: linker 4-11-18 via TATA
SMILES: CC(C)C[C@@H]1NC(=O)[C@@H]2CSCCC(=O)N3CN(CN(C3)C(=O)CCSC[C@H](NC(=O)[C@H](CC(=O)O)NC(=O)[C@H](CCCCNC(=N)N)NC(=O)[C@H](C)NC(=O)CN3CCN(CC(=O)O)CCN(CC(=O)O)CCN(CC(=O)O)CC3)C(=O)N3C[C@H](O)C[C@H]3C(=O)N[C@@H](CC(C)C)C(=O)N[C@@H](C(C)C)C(=O)N[C@@H](CC(N)=O)C(=O)N3CCC[C@H]3C(=O)N[C@@H](CC(C)C)C(=O)N2)C(=O)CCSC[C@@H](C(N)=O)NC(=O)[C@H](CCCCNC(=N)N)NC(=O)[C@H](Cc2c[nH]c3ccccc23)NC(=O)[C@@H](CC(=O)O)NC(=O)[C@@H]2CCCN2C(=O)[C@H](Cc2c[nH]cn2)NC1=O
For the molecule B1, in test [1], the Kd stood at 2.4 nM, the koff worked out at 0.00136 s⁻¹ and the kon worked out at 561000 M⁻¹ s⁻¹.

B2: AJ201 (peptide)
peptide: {NOTA-PEG2′}-GR[Sar][Sar][Sar]GA[hArg]DC[Hyp]LVNPLCLHP[dD]W[hArg]C-NH2
modifications: linker 10-17-24 via TATA; not fully specified; also: hydroxyproline, place not given here
notes: also called non-radioactive AJ201; bicyclic peptide AJ201; source: synthetic peptide, synthesized by CPC Scientific Inc., >90% purity
Turning to B2, the Kd in test [2] is 0.2 nM; in test [3] it was 0.6 nM.

As a reminder, the Kd is the free concentration of one partner at which half of the binding sites on the other are occupied at equilibrium, for simple one-to-one binding. In general, koff refers to the rate constant with which the complex falls apart. For orientation: kon means the second-order rate constant of association.

The values above are taken from paper PMC11984392, “EphA2-targeted alpha-particle theranostics for enhancing PDAC treatment” (Theranostics, 2025).
